# In patent publication US20060051832A1, “Modified sarcosine oxidase, process for producing the same and reagent composition using the same” (Toyo Boseki Kabushiki Kaisha, priority 2002, published 2006):
# Changes are numbered by the printed parent chain. Names and notes keep the numbering of the source.
# B1: Arthrobacter sp. TE1826 sarcosine oxidase (SEQ ID NO:1) variant SAOM3B, K322R (Arthrobacter sp. TE1826; K322R) (protein)
# chain: MSIKKDYDVIVVGAGSMGMAAGYYLSKQGVKTLLVDSFHPPHTNGSHHGDTRIIRHAYGEGREYVPFALRAQELWYELEKETHHKIFTKTGVLVFGPKGEAPFVAETMEAAKEHSLDVDLLEGSEINKRWPGVTVPENYNAIFEKNSGVLFSENCIRAYRELAEANGAKVLTYTPVEDFEIAEDFVKIQTAYGSFTASKLIVSMGAWNSKLLSKLNIEIPLQPYRQVVGFFECDEKKYSNTHGYPAFMVEVPTGIYYGFPSFGGCGLKIGYHTYGQKIDPDTINREFGIYPEDEGNIRKFLETYMPGATGELKSGDVCMYTRTPDEHFVIDLHPQFSNVAIAAGFSGHGFKFSSVVGETLSQLAVTGKTEHDISIFSINRPALKQKETI
# B2: Arthrobacter sp. TE1826 sarcosine oxidase (SEQ ID NO:1) variant SAOM4B, V94G, E250Q (Arthrobacter sp. TE1826; E250Q/V94G) (protein)
# chain: B1 chain with V94G, E250Q, R322K
# Columns and labels:
# [1] = system: Arthrobacter sp. TE1826 modified sarcosine oxidases of Example 3B (SEQ ID NO:1 variants); test: Km of modified sarcosine oxidases of Example 3B compared with unmodified; format: biochemical; details: modified vs unmodified; nearly equal to or within 1.5 times
# Method: (§1) • 100 mM Tris-HCl buffer (pH 8.0) (containing 200 mM sarcosine and 0.1% Triton X-100) • 0.1% 4-aminoantipyrine • 0.1% phenol • 25 U/mL peroxidase <Measurement Condition>
# (§2) A reaction mixture is prepared by mixing the above Tris-HCl buffer, 4-aminoantipyrine solution, phenol solution and peroxidase solution at a ratio of 5:1:2:2. The reaction mixture (1 mL) is taken to a test tube, preliminarily warmed at 37° C. for about 5 min, and 0.05 mL of an enzyme solution is added to start the reaction. The reaction at 37° C. is performed accurately for 10 min, then 2.0 mL of an aqueous solution of 0.25% SDS is added to stop the reaction, and an absorbance at 500 nm of this solution is measured. In a blind test, distilled water instead of the enzyme solution is added to the reagent mixture, and the same manipulation is followed to measure the absorbance. […] The reactivity to proline was measured as a relative ratio of activities when sarcosine in the above reagent was replaced by L-proline at the same concentration.
# (§3) Various sarcosine oxidases obtained in Example 3B and Comparative Example 1 were evaluated.
# (§4) Action on proline was calculated from a relative ratio (%) of the enzyme activity using L-proline as the substrate to the enzyme activity suing sarcosine as the substrate in the above activity measurement method. […]
# [2] = substrate: CNCC(=O)O; test: Km of modified sarcosine oxidase SAOM3B; format: biochemical, Arthrobacter sp. TE1826; details: other: SAOM3B, K322R, 37° C., pH 8.0
# Method: as §1
# as §2, with “concentration. […]” for “concentration.”
# as §3, §4
# [3] = substrate: CNCC(=O)O; test: Km of modified sarcosine oxidase SAOM4B; format: biochemical, Arthrobacter sp. TE1826; details: other: SAOM4B, 37° C., pH 8.0
# Method: as §1
# as §2, with “concentration. […]” for “concentration.”
# as §3, §4
molecule,measurement,setting,value
CNCC(=O)O [sarcosine],Km value for sarcosine relative to the Km value of the unmodified sarcosine oxidase,[1],≤ 1.5 times
B1,Km,[2],4.7 mM mM
B2,Km,[3],3.4 mM mM
